Tested on: BL21(DE3) E. coli
Test: Bacterial DNA deaminase rifampicin mutagenesis assay (acquired rifampin resistance)
Assay type: cell-based
Conditions: expression in E. coli
Experimental: In initial studies, a foreign protein/domain was inserted into an enhanced hyperactive version of AID described in U.S. patent application Ser. No. 16/025,261 (See for example, SEQ ID NO: 20 of the '261 patent application) which is incorporated herein by reference as though set forth in full. This mutant version of the human DNA deaminase AID, involved in antibody maturation was assessed and the loop regions which appeared to be tolerant to insertion of control elements (e.g., Green Fluorescent Protein GFP fragments) were identified as described hereinbelow. Several candidate locations for insertion were identified. We used an E. coli-based rifampin mutagenesis assay to evaluate activity (See Kohli et al., J Biol Chem. (2009) 284:pages 22898-904). In this assay we measure the activity level of a mutator by measuring how many E. coli can be turned resistant to the antibiotic rifampin when the enzyme is turned on.
The mutation frequency of various DNA deaminases, including insertion constructs, were determined using a modified version of previously reported rifampin mutagenesis assay (Kohli, JBC 2009). […] The mutation frequencies were then calculated by the ratio of rifampicin resistant colonies to total population. […]

B1: AID*: hyperactive AID variant (K10E, F42E, T82I, D118A, R119G, K120R, A121R, H130A, R131E, F141Y, F145E, E156G) with N-terminal MBP tag (protein, UniProt Q9GZX7 1-198, looked up, variant K10E F42E T82I D118A R119G K120R A121R H130A R131E F141Y F145E E156G)
Single-stranded DNA cytosine …: MDSLLMNRREFLYQFKNVRWAKGRRETYLCYVVKRRDSATSESLDFGYLRNKNGCHVELLFLRYISDWDLDPGRCYRVTWFISWSPCYDCARHVADFLRGNPNLSLRIFTARLYFCEAGRREPEGLRRLAEAGVQIAIMTYKDYEYCWNTFVENHGRTFKAWEGLHENSVRLSRQLRRILLPLYEVDDLRDAFRTLGL
modifications: N-terminal MBP tag
  Rif^R increase relative to catalytically inactive mutant AID(E58A): 265 fold
